Laboratory results reported in paper PMC7529888 (Nature, 2020).

What was measured:
[1] = target: PARP2 (human (from the printed UniProt …, UniProt Q9UGN5-2 1-570)); assay: cryo-EM structure
[2] = target: PARP2 (UniProt Q9UGN5-2 1-570); assay: EMSA

Binder	binding result [1]	binding result [2]
HPF1 (natural protein) MVGGGGKRRPGGEGPQCEKTTDVKKSKFCEADVSSDLRKEVENHYKLSLPEDFYHFWKFCEELDPEKPSDSLSASLGLQLVGPYDILAGKHKTKKKSTGLNFNLHWRFYYDPPEFQTIIIGDNKTQYHMGYFRDSPDEFPVYVGINEAKKNCIIVPNGDNVFAAVKLFLTKKLREITDKKKINLLKNIDEKLTEAARELGYSLEQRTVKMKQRDKKVVTKTFHGAGLVVPVDKNDVGYRELPETDADLKRICKTIVEAASDEERLKAFAPIQEMMTFVQFANDECDYGMGLELGMDLFCYGSHYFHKVAGQLLPLAYNLLKRNLFAEIIEEHLANRSQENIDQLAA	binds	
TCGCGGCAGCTGGTGCTGCCGCGA (structured_DNA, 5' phosphate) [hairpin DNA 5'P]		binds
